The target in this assay is Taxol-stabilized microtubules (MTs) from HeLa S3 cells (human (endogenous in HeLa S3)) (UniProt P68363). Kind of assay: solid-state NMR (J-based 2D 15N-HSQC); unlabeled MAP7-MTBD added to [13C,15N]-labeled MTs at molar ratio 2:1 MAP7-MTBD:MT in BRB80 with 20 uM taxol, 30 °C for 30 min, pelleted at 180,000 x g; MAS 44 kHz, actual temperature 293 K; bound population from a two-state model, P_bound = 1 - I_bound/I_free.

This is an account of results in PMC6940360.

B1: MAP7-MTBD (microtubule-binding domain of MAP7D3, residues 59-170) (domain or fragment)
chain: DGSMLKNDIKQRLARERREEKRRQQDANKETQLLEKERKTKLQYEKQMEERQRKLKERKEKEEQRRIAAEEKRHQKDEAQKEKFTAILYRTLERRRLADDYQQKRWSWGGSA
Consider B1, for which the bound population of alpha-tubulin Tyr451 (P bound) was found to be 65%; the bound population of beta-tubulin Ala444 (P bound) stood at 25%; the bound population of tail residues around the EGE and FGE segments (P bound) is less than 80%.
